Data on 2 molecules can be found in patent publication US20200040401A1 (KAOHSIUNG MEDICAL UNIVERSITY, published 2020).

The target in assay [1] is endogenous PREX2 of mouse liver (mouse, UniProt Q3LAC4 1-1598, limits assumed). As to the kind of experiment: reciprocal co-IP, mouse liver lysates (FIG. 1B). The text has this: FIG. 1B depicts that mouse liver lysates were used for reciprocal co-IP assay followed by IB analysis.
Please refer to FIG. 1A to FIG. 1G, which illustrates that GNMT interacts with PREX2 and negatively regulates PREX2-mediated AKT signaling. As the data in FIG. 1A illustrated, GNMT interacted with endogenous PREX2. […] To map the binding domain, different Myc-tagged PREX2 truncated mutants were co-expressed with Flag-tagged GNMT in HEK293T cells.

Assay [2] concerns the target phosphatidylinositol 3,4,5-trisphosphate Rac exchange factor 2 (PREX2) (UniProt Q70Z35 1-1606, limits assumed). As to the kind of experiment: cell-based or functional assay.

Sequence of phosphatidylinositol 3,4,5-trisphosphate Rac exchange factor 2 (PREX2) (Q70Z35 whole entry): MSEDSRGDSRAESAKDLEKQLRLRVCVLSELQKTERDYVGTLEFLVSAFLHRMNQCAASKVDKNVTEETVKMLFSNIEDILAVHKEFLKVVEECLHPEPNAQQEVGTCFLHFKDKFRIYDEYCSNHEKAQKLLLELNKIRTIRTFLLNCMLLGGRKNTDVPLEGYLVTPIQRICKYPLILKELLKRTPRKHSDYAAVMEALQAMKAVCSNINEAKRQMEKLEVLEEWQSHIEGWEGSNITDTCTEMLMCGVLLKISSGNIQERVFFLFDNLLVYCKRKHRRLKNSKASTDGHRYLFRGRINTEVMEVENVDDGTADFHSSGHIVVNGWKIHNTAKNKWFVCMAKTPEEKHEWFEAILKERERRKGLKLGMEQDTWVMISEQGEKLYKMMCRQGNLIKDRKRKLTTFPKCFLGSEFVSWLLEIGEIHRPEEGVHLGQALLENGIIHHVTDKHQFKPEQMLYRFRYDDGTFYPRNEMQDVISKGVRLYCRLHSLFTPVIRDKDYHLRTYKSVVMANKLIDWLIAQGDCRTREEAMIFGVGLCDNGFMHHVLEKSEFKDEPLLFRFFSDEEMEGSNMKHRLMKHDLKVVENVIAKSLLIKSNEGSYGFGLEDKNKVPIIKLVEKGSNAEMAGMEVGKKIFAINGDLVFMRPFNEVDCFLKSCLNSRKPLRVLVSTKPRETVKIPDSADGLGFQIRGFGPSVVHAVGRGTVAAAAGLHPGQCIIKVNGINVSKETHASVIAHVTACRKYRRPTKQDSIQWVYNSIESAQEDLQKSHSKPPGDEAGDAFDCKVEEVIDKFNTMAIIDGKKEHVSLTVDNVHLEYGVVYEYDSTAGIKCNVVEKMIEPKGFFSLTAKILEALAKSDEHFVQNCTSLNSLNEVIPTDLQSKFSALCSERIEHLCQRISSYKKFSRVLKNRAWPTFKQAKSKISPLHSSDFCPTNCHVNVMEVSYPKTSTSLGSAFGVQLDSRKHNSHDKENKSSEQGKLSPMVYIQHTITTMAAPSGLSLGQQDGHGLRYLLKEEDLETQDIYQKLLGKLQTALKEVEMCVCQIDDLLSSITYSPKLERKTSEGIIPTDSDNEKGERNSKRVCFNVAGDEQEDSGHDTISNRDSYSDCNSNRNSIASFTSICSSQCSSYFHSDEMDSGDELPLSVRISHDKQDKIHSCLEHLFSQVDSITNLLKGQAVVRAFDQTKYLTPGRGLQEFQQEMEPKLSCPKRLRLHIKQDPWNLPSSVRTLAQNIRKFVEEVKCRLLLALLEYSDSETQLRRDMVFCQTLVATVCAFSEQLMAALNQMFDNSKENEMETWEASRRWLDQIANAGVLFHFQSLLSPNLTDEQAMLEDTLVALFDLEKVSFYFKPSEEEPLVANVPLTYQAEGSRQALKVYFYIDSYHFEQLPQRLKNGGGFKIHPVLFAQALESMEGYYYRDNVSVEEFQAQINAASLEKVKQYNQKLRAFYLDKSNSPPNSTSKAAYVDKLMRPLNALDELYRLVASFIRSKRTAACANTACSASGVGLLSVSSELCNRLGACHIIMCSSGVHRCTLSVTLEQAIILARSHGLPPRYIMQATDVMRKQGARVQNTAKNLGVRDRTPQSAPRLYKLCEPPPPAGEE
Sequence of endogenous PREX2 of mouse liver (Q3LAC4 whole entry, the tested form may be a part): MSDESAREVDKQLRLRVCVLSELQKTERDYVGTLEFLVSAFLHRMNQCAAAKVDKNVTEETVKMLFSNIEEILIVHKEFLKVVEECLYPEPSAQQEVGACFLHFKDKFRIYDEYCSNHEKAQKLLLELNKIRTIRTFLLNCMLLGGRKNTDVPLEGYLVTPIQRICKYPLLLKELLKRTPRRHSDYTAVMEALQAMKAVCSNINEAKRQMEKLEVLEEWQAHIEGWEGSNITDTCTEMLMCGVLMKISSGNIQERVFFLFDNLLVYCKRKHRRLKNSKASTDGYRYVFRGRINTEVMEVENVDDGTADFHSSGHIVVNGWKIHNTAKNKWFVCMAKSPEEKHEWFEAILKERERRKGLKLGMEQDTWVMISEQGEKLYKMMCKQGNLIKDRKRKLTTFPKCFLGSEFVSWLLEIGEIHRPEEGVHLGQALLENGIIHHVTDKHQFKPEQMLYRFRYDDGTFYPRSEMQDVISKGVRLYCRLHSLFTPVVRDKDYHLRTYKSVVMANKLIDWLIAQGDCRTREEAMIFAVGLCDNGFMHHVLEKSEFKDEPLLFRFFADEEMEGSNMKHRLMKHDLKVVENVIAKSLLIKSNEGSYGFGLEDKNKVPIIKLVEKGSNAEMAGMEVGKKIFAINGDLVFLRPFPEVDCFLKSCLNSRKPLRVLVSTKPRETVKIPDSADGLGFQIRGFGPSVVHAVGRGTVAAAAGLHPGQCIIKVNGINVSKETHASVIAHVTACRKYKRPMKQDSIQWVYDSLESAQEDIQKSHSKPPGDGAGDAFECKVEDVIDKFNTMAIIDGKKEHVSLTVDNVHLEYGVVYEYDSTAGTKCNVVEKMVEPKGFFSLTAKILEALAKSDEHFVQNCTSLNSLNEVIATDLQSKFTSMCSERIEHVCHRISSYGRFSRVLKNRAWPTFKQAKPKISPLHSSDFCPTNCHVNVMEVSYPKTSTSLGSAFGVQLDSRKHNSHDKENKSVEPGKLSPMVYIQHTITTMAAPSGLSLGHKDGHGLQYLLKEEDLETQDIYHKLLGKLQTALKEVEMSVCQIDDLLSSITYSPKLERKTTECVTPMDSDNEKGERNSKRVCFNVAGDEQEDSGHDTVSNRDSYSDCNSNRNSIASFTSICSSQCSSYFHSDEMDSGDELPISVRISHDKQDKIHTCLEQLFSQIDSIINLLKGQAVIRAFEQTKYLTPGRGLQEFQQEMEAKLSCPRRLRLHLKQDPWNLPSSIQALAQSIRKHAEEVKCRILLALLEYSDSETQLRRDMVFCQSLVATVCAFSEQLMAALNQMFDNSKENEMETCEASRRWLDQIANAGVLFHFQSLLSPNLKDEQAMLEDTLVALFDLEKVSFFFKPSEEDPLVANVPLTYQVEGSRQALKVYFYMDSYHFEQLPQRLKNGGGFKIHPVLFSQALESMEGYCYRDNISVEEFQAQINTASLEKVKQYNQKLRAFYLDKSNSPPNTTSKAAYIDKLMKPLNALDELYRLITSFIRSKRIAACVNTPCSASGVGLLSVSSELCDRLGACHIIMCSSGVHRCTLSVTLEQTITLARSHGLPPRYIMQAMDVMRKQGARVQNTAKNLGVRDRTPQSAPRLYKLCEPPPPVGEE

B1: endogenous GNMT of mouse liver (enzyme, UniProt Q9QXF8 2-293, looked up)
chain: VDSVYRTRSLGVAAEGLPDQYADGEAARVWQLYIGDTRSRTAEYKAWLLGLLRQHGCHRVLDVACGTGVDSIMLVEEGFSVMSVDASDKMLKYALKERWNRRKEPSFDNWVIEEANWLTLDKDVLSGDGFDAVICLGNSFAHLPDCKGDQSEHRLALKNIASMVRPGGLLVIDHRNYDYILSTGCAPPGKNIYYKSDLTKDITTSVLTVNNKAHMVTLDYTVQVPGTGRDGSPGFSKFRLSYYPHCLASFTELVRAAFGGRCQHSVLGDFKPYKPGQAYVPCYFIHVLKKTD
Take B1: the binding result in assay [1] is “binds”.

B2: glycine-N-methyltransferase (GNMT) (enzyme)
chain: VDSVYRTRSLGVAAEGLPDQYADGEAARVWQLYIGDTRSRTAEYKAWLLGLLRQHGCQRVLDVACGTGVDSIMLVEEGFSVTSVDASDKMLKYALKERWNRRHEPAFDKWVIEEANWMTLDKDVPQSAEGGFDAVICLGNSFAHLPDCKGDQSEHRLALKNIASMVRAGGLLVIDHRNYDHILSTGCAPPGKNIYYKSDLTKDVTTSVLIVNNKAHMVTLDYTVQVPGAGQDGSPGLSKFRLSYYPHCLASFTELLQAAFGGKCQHSVLGDFKPYKPGQTYIPCYFIHVLKRTD
Turning to B2, the “PREX2 half-life (pulse-chase, 35S-Methionine/Cysteine, Huh7 cells)” value in assay [2] is 9.4 h.
